Data on 1 molecule can be found in paper PMC4912634.

The target in this test is tubulin heterodimer (porcine/bovine brain tubulin) (not stated (porcine or bovine brain)) (UniProt Q6B856). Briefly: ITC; PN2-3 proteins/peptides titrated into tubulin in the cell; 15 °C; 1xBRB80 (80 mM PIPES-K, 1 mM MgCl2, 1 mM EGTA, pH 6.8); one set of binding sites model; tubulin 9 μM for wild type and mutant PN2-3. For orientation: In ITC the heat of successive injections is recorded.

B1: PN2-3C peptide (PN2-3's C-terminus, aa 372-394 of CPAP) (peptide)
peptide: KQPFLKRGEGLARFTNAKSKFQK
Usually Kd stands for a measure of binding affinity in units of concentration. On to B1, for which the Kd was found to be 4.8 µM.
